Test results published in the RNAGym collection of RNA variant scans (doi:10.7554/elife.90254).

B1: OR4K15 (parent)
chain: GUUAACGGUCAUAGGCCAUGGAAACUAGGAGCACCAUUUCGCUGCCAGUGAAGAAAUGAACAAAGAAAAUCUGGGCCAGGCAGGCAUCAAAAGAAAUAGUCUUGCGCUCAACCAGAAAGUCUGUAAUCAUUUUAAGGGUA

Variants of: B1
Test: self-cleavage, relative activity (ratio to wild type); higher = more cleavage; in vitro, sequencing; the parent is a self-cleaving ribozyme

Row | Variant | self-cleavage
1 | GUUAACGGUCAUAGGCCAUGGAAACUAGGAGCACCAUUUCGCUGCCAGUGAAGAAAUGAACAAAGAAAAUCUGGGCCAGGCAGGCAUCAUAAGAAAUAGACUUGCGCUCAACCAGAAAGUCUGUAAUCAUUUUAAGGGUA | 0.15
2 | GUCAACGGUCAUAGGCCAUGGAAACUAGGAGCACCAUUUCGCUGCCAGUGAAGAAAUGAACAAAGAAAAUCUGGGCCAGGCAGCCAUCAAAAGAAAUAGUCUUGCGCUCAACCAGAAAGUCUGUAAUCAUUUUAAGGGUA | 0.37
3 | GUUAACGGCCAUAGGCCAUGGAAACUAGGAGCACCACUUCGCUGCCAGUGAAGAAAUGAACAAAGAAAAUCUGGGCCAGGCAGGCAUCAAAAGAAAUAGUCUUGCGCUCAACCAGAAAGUCUGUAAUCAUUUUAAGGGUA | 1.57
4 | GUUAACGGUCAUAGGCCAUGGAAACUAGGAGCACCAUUUCGCUGCCAGUGAAGAAAUGAACAAAGAAAAUCUGGGCCAGGCAGGCAUCGAAAGAAAUAGUCUUGCGCUCAACGAGAAAGUCUGUAAUCAUUUUAAGGGUA | 0.01
5 | GUUAACGGUCAUAGGCCAUGGAAACUAGGAGCACCAUUUCGCUGCCAGUGAAGAAAUGAACGAAGAAAAUCUGGGCCAGGCAGGCACCAAAAGAAAUAGUCUUGCGCUCAACCAGAAAGUCUGUAAUCAUUUUAAGGGUA | 0.88
6 | GUUAACGGUCAUAGGCCAUGGAAACUAGGAGCACCAUUUCGCUGCCAGUGAAGAAAUGAACAAAGAAAAUCUGGGCCAGGCUGGCAUCAGAAGAAAUAGUCUUGCGCUCAACCAGAAAGUCUGUAAUCAUUUUAAGGGUA | 0.33
7 | GUUAACGGUCAUAGGCCAUGGAAACUAGGAGCACCAUUUCGCUGCCAGUGAAGAAAUGAACAUAGAAAAUCUGGGCCAGGCAGGCAUCAAAAGAGAUAGUCUUGCGCUCAACCAGAAAGUCUGUAAUCAUUUUAAGGGUA | 1.78
8 | GUUAACGGUCAUAGGCCAUGGAAACUAGGAGCACCAUUUCGCUGCCAAUGAAGAAAUGAACAAAGAAAAUCUGGGCCAGGCAGGCAUCAGAAGAAAUAGUCUUGCGCUCAACCAGAAAGUCUGUAAUCAUUUUAAGGGUA | 0.76
9 | GUUAACGGUCAUAGGCCAUGGAAACUAGGAGCACCAUUUCGCUGCCAGUGAAGAAAUGAACAAAGAAAAUCUGGGCCAGGCGGGCACCAAAAGAAAUAGUCUUGCGCUCAACCAGAAAGUCUGUAAUCAUUUUAAGGGUA | 0.46
10 | GUUAACGGUCAUAGGCCAUGGAAACUAGGAGCACCAUUUCGCUGCCAGUGAAGAAAUGAACAAAGAAAAUCUGGGCCAGGCAGGCAUCAAAAGAAGUAGUCUUGCGCUCAACCAGAAAGUCUGUAUUCAUUUUAAGGGUA | 1.49
11 | GUUAGCGGUCAUAGGCCAUGGAAACUAGGAGCACCAUUUCGCUGCCAGUGAAGAAAUGAACAAAGAAAAUCUGGGCCAGGCAGGCAUCAAAAGAAAUAGUCUUGCGCUCAACCAGAAAGUCCGUAAUCAUUUUAAGGGUA | 0.91
12 | GUUAACGGUCAUAGGCCAUGGAAACUAGGAGCACCAUUUCGCUGCCAGUGAAGAAAUGAACAAAGAAAAUCUGGGCCAGGCAGGCAUCAAAAGGAAUAGUCUGGCGCUCAACCAGAAAGUCUGUAAUCAUUUUAAGGGUA | 0.03
13 | GUUAACGGUCCUAGGCCAUGGAAACUAGGAGCACCAUUUCGCCGCCAGUGAAGAAAUGAACAAAGAAAAUCUGGGCCAGGCAGGCAUCAAAAGAAAUAGUCUUGCGCUCAACCAGAAAGUCUGUAAUCAUUUUAAGGGUA | 2.23
14 | GUUAACGGUCGUAGGCCAUGGAACCUAGGAGCACCAUUUCGCUGCCAGUGAAGAAAUGAACAAAGAAAAUCUGGGCCAGGCAGGCAUCAAAAGAAAUAGUCUUGCGCUCAACCAGAAAGUCUGUAAUCAUUUUAAGGGUA | 1.51
15 | GUUAACGGUCAUAGGCCAUGGAAACUAGGAGCACCAUUUCGCUGCCAGUGAAGAAAUGAACAAAGUAAAUCUGGGCCAGGUAGGCAUCAAAAGAAAUAGUCUUGCGCUCAACCAGAAAGUCUGUAAUCAUUUUAAGGGUA | 0.05
16 | GUUAACGGUCAUAGGCCAUGGAAACUAGGAGCACCAUUUCGCUGCCAGUGAAGAAGUGAACAAAGAAAAUCUGGGCCAGGCUGGCAUCAAAAGAAAUAGUCUUGCGCUCAACCAGAAAGUCUGUAAUCAUUUUAAGGGUA | 0.23
17 | GUUAACGGUCAUAGGCCAUGGAAACUAGGAGCCCCAUUUCGCUGCCAGUGUAGAAAUGAACAAAGAAAAUCUGGGCCAGGCAGGCAUCAAAAGAAAUAGUCUUGCGCUCAACCAGAAAGUCUGUAAUCAUUUUAAGGGUA | 2.27
18 | GUUAACGGUCAUAGGCCAUGGAAACUAGGAGCACCACUUCGCUGCCAGUGAAGAAAUGAACAAAGAAAAUCUGGGCCAGGCAGGCAUCUAAAGAAAUAGUCUUGCGCUCAACCAGAAAGUCUGUAAUCAUUUUAAGGGUA | 2.23
19 | GUUAACGGUCAUAGGCCAUGGAAACUAGGAGCACCAUUUCGCUGCCAGUGAAGGAAUGAACAAAGAAAAUCUGGGCCAGGCAGGCAUCAAAAGAAAUAGUCUUGCGCUCAACCAGAAAGGCUGUAAUCAUUUUAAGGGUA | 2.09
20 | GUUAACGGUCAUAGGCCAUGGAAACUAGCAGCACCAUUUCGCUGCCAGUGAAGAAAUGAACAAAGAAAAUCUGGGCCAGGCAGGCAUCAAAAGAAAUAGCCUUGCGCUCAACCAGAAAGUCUGUAAUCAUUUUAAGGGUA | 2.39
21 | GUUAACGGCCAUAGGCUAUGGAAACUAGGAGCACCAUUUCGCUGCCAGUGAAGAAAUGAACAAAGAAAAUCUGGGCCAGGCAGGCAUCAAAAGAAAUAGUCUUGCGCUCAACCAGAAAGUCUGUAAUCAUUUUAAGGGUA | 1.8
